Experiment [1] deals with T1, human C-KIT, full length, on cells (human, UniProt P10721 26-976).
T1 construct: full-length cDNA stably transfected in CHO-K1; also used here for endogenous C-KIT of TF-1 cells; also called human C-KIT+ CHO-K1 cells; C-KIT on TF-1 cells
The experiment can be described thus: flow cytometry, C-KIT-transfected CHO-K1 cells, IgG1 format. On the technique in general: Flow cytometry measures light scatter and fluorescence of single cells or particles in a stream.

The target of experiment [2] is T2, cynomolgus monkey C-KIT-Fc (cynomolgus monkey).
T2 construct: also called cyno C-KIT-Fc
The experiment can be described thus: direct ELISA at 1 µg/ml. Background: An ELISA detects its analyte on a solid surface through an enzyme-linked reagent.

Experiment [3] deals with T3, human C-KIT-Fc (human, UniProt P10721 26-524).
T3 construct: also called biotinylated human C-KIT-Fc; not shown: Fc part not described
The experiment is described as follows: direct ELISA at 1 µg/ml.

The target of experiment [4] is T4, cynomolgus monkey C-KIT, full length, on CHO-K1 cells (cynomolgus monkey).
T4 construct: whole, on cells; also called cyno C-KIT+ CHO-K1 cells
The experiment is described as follows: flow cytometry, C-KIT-transfected CHO-K1 cells, IgG1 format.

Experiment [5] has as its target T3, human C-KIT-Fc. The experiment is described as follows: direct titration ELISA on coated C-KIT-Fc, IgG1 format.
The next experiment deals with T5, h4-1BB-Fc.
T5 construct: member of the panel m9
T5 sequence (chain, as listed by the source limits assumed): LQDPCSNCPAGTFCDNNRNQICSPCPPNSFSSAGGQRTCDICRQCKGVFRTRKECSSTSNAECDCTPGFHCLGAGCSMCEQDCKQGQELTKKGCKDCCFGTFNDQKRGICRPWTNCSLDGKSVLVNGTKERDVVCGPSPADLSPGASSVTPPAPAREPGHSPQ
The experiment can be described thus: direct ELISA on coated protein, IgG1.

Experiment [6] deals with T2, cynomolgus monkey C-KIT-Fc. The experiment can be described thus: HTRF competition vs Tb-h37M IgG1. (In TR-FRET formats the signal depends on donor and acceptor labels being close together.)
Experiment [7] addresses T3, human C-KIT-Fc. The experiment is described as follows: HTRF competition vs Tb-h37M IgG1.
Experiment [8] concerns the target T3, human C-KIT-Fc. The experiment can be described thus: direct titration ELISA on coated C-KIT-Fc, IgG1 format. This is another data set of the same source.
Experiment [9] concerns the target T3, human C-KIT-Fc. The experiment is described as follows: HTRF competition vs Tb-h37M IgG1. This is another data set of the same source.
A further experiment addresses T6, F13A1 (human, UniProt P00488 39-732).
T6 construct: whole, on cells
T6 sequence (looked up): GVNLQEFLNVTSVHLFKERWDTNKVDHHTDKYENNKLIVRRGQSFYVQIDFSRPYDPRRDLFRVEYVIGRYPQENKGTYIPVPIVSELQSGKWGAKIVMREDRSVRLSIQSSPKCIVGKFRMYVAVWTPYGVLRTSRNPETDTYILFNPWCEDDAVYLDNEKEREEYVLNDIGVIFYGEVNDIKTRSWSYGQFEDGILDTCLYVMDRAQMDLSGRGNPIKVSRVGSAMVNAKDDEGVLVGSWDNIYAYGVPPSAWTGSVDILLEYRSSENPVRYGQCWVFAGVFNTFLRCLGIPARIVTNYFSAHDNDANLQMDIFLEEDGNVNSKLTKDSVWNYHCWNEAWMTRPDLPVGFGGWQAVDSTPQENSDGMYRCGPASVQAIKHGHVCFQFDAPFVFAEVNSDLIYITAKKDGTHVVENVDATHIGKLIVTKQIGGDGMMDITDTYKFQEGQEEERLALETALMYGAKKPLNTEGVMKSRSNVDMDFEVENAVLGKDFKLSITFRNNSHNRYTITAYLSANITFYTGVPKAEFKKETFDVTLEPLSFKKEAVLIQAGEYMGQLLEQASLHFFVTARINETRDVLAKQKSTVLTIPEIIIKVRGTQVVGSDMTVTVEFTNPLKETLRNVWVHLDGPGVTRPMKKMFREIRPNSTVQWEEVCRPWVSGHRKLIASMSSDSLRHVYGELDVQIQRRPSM
The experiment is described as follows: cell array, HEK293 re-array slides.

The next experiment deals with T7, MMP7 (human, UniProt P09237 95-267).
T7 construct: whole, on cells
T7 sequence (looked up): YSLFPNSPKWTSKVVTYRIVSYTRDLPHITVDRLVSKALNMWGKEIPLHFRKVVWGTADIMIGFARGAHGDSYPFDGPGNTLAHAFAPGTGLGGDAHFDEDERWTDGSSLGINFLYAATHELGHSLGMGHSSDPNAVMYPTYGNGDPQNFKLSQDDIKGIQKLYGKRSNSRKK
The experiment is described as follows: cell array, HEK293 re-array slides.

Another experiment has as its target T8, CRIM1 (human, UniProt Q9NZV1 35-1036).
T8 construct: whole, on cells
T8 sequence (looked up): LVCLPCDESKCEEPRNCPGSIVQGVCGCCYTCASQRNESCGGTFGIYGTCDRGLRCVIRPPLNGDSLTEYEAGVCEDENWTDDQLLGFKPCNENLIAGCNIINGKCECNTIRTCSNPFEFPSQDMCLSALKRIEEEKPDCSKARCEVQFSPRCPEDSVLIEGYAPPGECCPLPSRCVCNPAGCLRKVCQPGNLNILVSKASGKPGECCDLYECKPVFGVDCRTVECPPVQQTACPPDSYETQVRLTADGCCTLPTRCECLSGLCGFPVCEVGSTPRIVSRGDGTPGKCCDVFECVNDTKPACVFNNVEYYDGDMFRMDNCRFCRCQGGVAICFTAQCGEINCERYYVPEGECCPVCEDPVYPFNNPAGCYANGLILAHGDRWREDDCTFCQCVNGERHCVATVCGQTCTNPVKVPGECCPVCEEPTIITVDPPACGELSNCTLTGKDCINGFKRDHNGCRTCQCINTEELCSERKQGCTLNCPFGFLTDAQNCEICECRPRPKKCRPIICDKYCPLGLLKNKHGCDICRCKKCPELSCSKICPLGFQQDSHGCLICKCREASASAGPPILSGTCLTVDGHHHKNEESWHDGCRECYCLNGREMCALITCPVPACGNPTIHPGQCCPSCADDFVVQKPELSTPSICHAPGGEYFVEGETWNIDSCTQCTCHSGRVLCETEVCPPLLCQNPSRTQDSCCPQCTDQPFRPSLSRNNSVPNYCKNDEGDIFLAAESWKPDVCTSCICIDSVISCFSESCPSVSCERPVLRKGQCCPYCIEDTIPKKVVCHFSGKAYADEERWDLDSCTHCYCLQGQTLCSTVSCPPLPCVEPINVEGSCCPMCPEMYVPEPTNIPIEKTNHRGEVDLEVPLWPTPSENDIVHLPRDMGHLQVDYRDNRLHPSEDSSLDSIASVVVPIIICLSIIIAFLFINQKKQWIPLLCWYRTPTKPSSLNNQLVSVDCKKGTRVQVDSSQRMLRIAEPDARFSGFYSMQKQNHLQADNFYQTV
The experiment can be described thus: cell array, HEK293 re-array slides.

Like-named read-outs stand apart in the source and are kept apart here.

These results are taken from patent publication US20200283521A1 (GRANULAR THERAPEUTICS, published 2020).

What is called EC50 (read off the curve) is the concentration at which the effect is half-maximal. The term IC50 denotes the concentration needed to halve the response being measured.

B1: MH5, human IgG1 (antibody, V domains shown)
VH: QVQLVQSGAEVKKPGASVKVSCKASGYTFTDYYMNWVRQAPGQGLEWMGRIYPGSGNTYYAQKFQGRVTMTRDTSTSTVYMELSSLRSEDTAVYYCARGVYYYDYWGQGTLVTVSS
VL: DIQMTQSPSSLSASVGDRVTITCRASQGIRTNLAWFQQKPGKAPKSLIYSASSLQSGVPSRFSGSGSGTDFTLTISSLQPEDFATYYCQQYANYPRTFGGGTKVEIK
notes: IgG1; also called C-KIT-MH5; C-KIT-MHS
On to B1, for which the “EC50 (read off the curve)” value in [1] is around 0.3 µg/mL; in experiment [4] it was around 0.5 µg/mL; with human C-KIT-Fc [5], around 0.1 µg/mL; with human C-KIT-Fc [8], around 0.1 µg/mL. For the same molecule, the results for the OD450 nm (in [2]; in the experiment with human C-KIT-Fc [3]) were above 2 OD450 nm and above 1.8 OD450 nm, respectively. Besides, in the experiment with h4-1BB-Fc, the binding result is given as “no binding (tested: 1 µg/ml)”. Also, the IC50 in experiment [6] worked out at 0.058 µg/mL; in the experiment with human C-KIT-Fc [7] it was 0.067 µg/mL; in the experiment with human C-KIT-Fc [9] it was 0.063 µg/mL.

B2: MH1, human IgG1 (antibody, V domains shown)
VH: QVQLVQSGAEVKKPGASVKVSCKASGYTFTDYYMNWVRQAPGQGLEWMGRIYPGSGNTYYAQKFQGRVTMTRDTSTSTVYMELSSLRSEDTAVYYCARGVYYYDYWGQGTLVTVSS
VL: DIQMTQSPSSLSASVGDRVTITCRASQGIRTNLAWFQQKPGKAPKSLIYAASSLQSGVPSRFSGSGSGTDFTLTISSLQPEDFATYYCQQYNSYPRTFGGGTKVEIK
notes: IgG1; also called IgG1-MH1
B2: the binding result was “no binding (tested: 0.5 and 2 µg/ml)” in the experiment with F13A1; “no binding (tested: 0.5 and 2 µg/ml)” in the experiment with MMP7; “no binding (tested: 0.5 and 2 µg/ml)” in the experiment with CRIM1. Also, the OD450 nm in [2] was above 2 OD450 nm; with human C-KIT-Fc [3], above 1.8 OD450 nm. In addition, the “EC50 (read off the curve)” value with human C-KIT-Fc [8] was around 0.1 µg/mL.

B3: MH5.22 (antibody, IgG1, V domains shown)
VH: QVQLVQSGAEVKKPGASVKVSCKASGYTFTDFYMNWVRQAPGQGLEWMGRIYPASGNTYYAQKFQGRVTMTRDTSTSTVYMELSSLRSEDTAVYYCARGVWYYDYWGQGTLVTVSS
VL: DIQMTQSPSSLSASVGDRVTITCRASQGIRTNLAWFQQKPGKAPKSLIYAASSLQSGVPSRFSGSGSGTDFTLTISSLQPEDFATYYCQQYANYPRTFGGGTKVEIK
notes: IgG1; also called C-KIT-MH5.22
For B3, the 50% effective concentration (EC50 (read off the curve)) in experiment [1] and in experiment [4] was around 0.4 µg/mL in each case. Also, the OD450 nm in [2] is above 2 OD450 nm; with human C-KIT-Fc [3] it was above 1.8 OD450 nm. Also, the IC50 in experiment [6] was 0.164 µg/mL; with human C-KIT-Fc [7], 0.134 µg/mL.

B4: humanized h37M, human IgG1 (antibody, V domains shown)
VH: QVQLVQSGAEVKKPGASVKLSCKASGYTFTDYYINWVRQAPGKGLEWIARIYPGSGNTYYNEKFKGRATLTADKSTSTAYMQLSSLRSEDTAVYFCARGVYYFDYWGQGTTVTVSS
VL: DIVMTQSPSSLSASVGDRVTITCKASQNVRTNVAWYQQKPGKAPKALIYSASYRYSGVPDRFTGSGSGTDFTLTISSLQPEDFADYFCQQYNSYPRTFGGGTKVEIK
notes: human IgG1; terbium-labelled as the tracer of the HTRF assays; also called C-KIT-h37M; h37M-IgG1
As for B4, the binding result with F13A1 was “no binding (tested: 0.5 and 2 µg/ml)”; with MMP7, “no binding (tested: 0.5 and 2 µg/ml)”; with CRIM1, “no binding (tested: 0.5 and 2 µg/ml)”. In addition, the “EC50 (read off the curve)” value in experiment [1] is around 0.2 µg/mL; with human C-KIT-Fc [5], around 0.1 µg/mL; in the experiment with human C-KIT-Fc [8], around 0.2 µg/mL. Besides, in the experiment with human C-KIT-Fc [3], the OD450 nm was above 1.8 OD450 nm. Besides, the IC50 in the experiment with human C-KIT-Fc [7] amounted to 0.016 µg/mL; with human C-KIT-Fc [9], 0.025 µg/mL.
